Experimental data published in patent US8008542B2, “Compositions, cells, and plants that include BKI1, a negative regulator of BRI1-mediated BR signaling” (The Salk Institute for Biological Studies, priority 2007, dated 2011).

Assays:
[1] = biological target: T1, BRI1 kinase (Arabidopsis thaliana, UniProt O22476); test: In vitro phosphorylation of MBP-BKI1 by BRI1 kinase; format: biochemical; details: MBP-BKI1, BRI1-KD-HIS, 200 μM ATP; read-out: Km as substrate of BRI1 kinase in vitro
T1 construct: The intracellular domain of BRI1(BRI1-KD) was cloned into pETBlue2 (Novagen) with a C-terminal His tag; made in house; host or cells: E. coli BL21 (DE3) Codon plus RIL
T1 sequence (O22476 883-1158 limits assumed): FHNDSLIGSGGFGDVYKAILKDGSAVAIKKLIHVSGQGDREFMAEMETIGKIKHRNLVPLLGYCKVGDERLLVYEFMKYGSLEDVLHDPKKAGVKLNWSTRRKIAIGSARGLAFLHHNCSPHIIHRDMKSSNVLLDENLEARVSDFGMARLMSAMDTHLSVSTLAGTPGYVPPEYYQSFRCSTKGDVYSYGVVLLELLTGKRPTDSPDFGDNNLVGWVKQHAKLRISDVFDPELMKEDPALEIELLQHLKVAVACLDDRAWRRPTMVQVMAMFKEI
Protocol: The intracellular domain of BRI1(BRI1-KD) was cloned into pETBlue2 (Novagen) with a C-terminal His tag. BKI1 was cloned into the pMAL-2cX vector (New England Biolabs) resulting in an Nterminal maltose-binding protein (MBP) fusion. BRI1-KD-HIS and MBP-BKI1 fusion proteins were expressed in BL21 (DE3) Codon plus RIL (Stratagene) and purified with Ni-NTA agarose (Qiagen) and […] (New England Biolabs), respectively. For the phosphorylation assays, each reaction contained 50 mM HEPES [pH7.4], 10 mM MgCl2, 10 mM MnCl2, 1 mM DTT, 200 μM ATP, 1 μl (10 μCi) [γ-32P] ATP, 0.5 μl of BRI1-His, different amounts of MBP-BKI1, and double deionized H2O in a final volume of 24 μl. Reactions were terminated by addition of 8 μl of 4×SDS loading buffer. Samples were separated on a 4-20% Tris-Glycine SDS-PAGE gel (Invitrogen), which was then stained, destained, dried, and visualized and quantified using a PhosphorImager. The kinetic analysis of the phosphorylation of MBP-BKI1 by BRI1 kinase was conducted with a GraphPad Prism 4 (http://www.graphpad.com/prism/Prism.htm). […] The BKI1-FLAG protein was detected by immunoblot analysis with anti-FLAG antibody.

[2] = biological target: T2, intracellular domain of BRI1 (BRI1-KD) (Arabidopsis thaliana, UniProt O22476); test: Yeast two-hybrid interaction with BRI1-KD; format: binding
T2 construct: expressed in transfected cells; host or cells: yeast strain MaV203
T2 sequence (O22476 828-1196): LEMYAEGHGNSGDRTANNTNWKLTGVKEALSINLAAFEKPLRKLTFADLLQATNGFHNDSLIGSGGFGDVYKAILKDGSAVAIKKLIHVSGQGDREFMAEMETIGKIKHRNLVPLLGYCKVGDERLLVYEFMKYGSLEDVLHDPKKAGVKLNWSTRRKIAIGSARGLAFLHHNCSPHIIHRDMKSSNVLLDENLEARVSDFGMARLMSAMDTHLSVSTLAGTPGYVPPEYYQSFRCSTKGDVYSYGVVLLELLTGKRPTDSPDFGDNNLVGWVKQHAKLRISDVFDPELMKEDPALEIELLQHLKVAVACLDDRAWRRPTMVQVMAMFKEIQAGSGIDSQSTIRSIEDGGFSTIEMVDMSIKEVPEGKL
Protocol: (§2) A ProQuest Two-Hybrid system with Gateway technology (Invitrogen) was used. […] The full-length (BKI1-FL), and various truncated proteins, 1-252 (BKI1-ΔCT1), 1-299 (BKI1-ΔCT2), and 253-337 (BKI1-CT) of BKI1 were cloned into the pEXPAD502 vector. The kinase domain of NIK1 (NIK1-KD) (Fontes et al. (2004) Genes Dev. 18:2545), BAK1 (BAK1-KD), CLV1 (CLV1-KD), BRL1 (BRL1-KD), BRL3 (BRL3-KD), full length TTL, and full-length BIN2 were cloned into the pDBLeu vector. Interactions were tested on SD medium minus Leu, Trp, and His, and containing 25 mM 3-Amino-1,2,4-Triazole (3AT), using the yeast strain MaV203 according to the manufacturer's manual.

[3] = biological target: T3, NIK1 (Arabidopsis thaliana, UniProt Q9LFS4); test: Yeast two-hybrid interaction with NIK1-KD; format: binding
T3 construct: The kinase domain of NIK1 (NIK1-KD) (Fontes et al. (2004) Genes Dev. 18:2545); expressed in transfected cells; host or cells: yeast strain MaV203
Protocol: as §2

[4] = biological target: T4, CLV1 (Arabidopsis thaliana, UniProt Q9SYQ8); test: Yeast two-hybrid interaction with CLV1-KD; format: binding
T4 construct: expressed in transfected cells; host or cells: yeast strain MaV203
T4 sequence (Q9SYQ8 692-968 limits assumed): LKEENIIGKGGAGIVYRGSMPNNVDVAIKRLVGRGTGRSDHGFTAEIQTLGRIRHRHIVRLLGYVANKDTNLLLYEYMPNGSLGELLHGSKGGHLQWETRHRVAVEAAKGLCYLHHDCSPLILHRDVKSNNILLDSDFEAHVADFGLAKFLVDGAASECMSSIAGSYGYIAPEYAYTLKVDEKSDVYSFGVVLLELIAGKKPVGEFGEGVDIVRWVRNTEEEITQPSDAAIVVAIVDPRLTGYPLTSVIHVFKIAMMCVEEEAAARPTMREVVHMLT
Protocol: (§1) BKI1 fused with GAL4-AD (BKI1-pEXAD502) interacts with the intracellular domain of BRI1 (BRI1-KD), but not CLV1 (CLV1-KD), BRL1 (BRL1-KD), and BRL3 (BRL3-KD), fused with GAL4-DB (in pDBLeu) in yeast. pDBLeu was used as a negative control. Each spot from left to right contains 10 μl yeast cell culture with OD600=0.2, 0.04, 0.008, and 0.0016.

[5] = biological target: T5, BRL1 (Arabidopsis thaliana, UniProt Q9ZWC8); test: Yeast two-hybrid interaction with BRL1-KD; format: binding
T5 construct: expressed in transfected cells; host or cells: yeast strain MaV203
T5 sequence (Q9ZWC8 859-1147 limits assumed): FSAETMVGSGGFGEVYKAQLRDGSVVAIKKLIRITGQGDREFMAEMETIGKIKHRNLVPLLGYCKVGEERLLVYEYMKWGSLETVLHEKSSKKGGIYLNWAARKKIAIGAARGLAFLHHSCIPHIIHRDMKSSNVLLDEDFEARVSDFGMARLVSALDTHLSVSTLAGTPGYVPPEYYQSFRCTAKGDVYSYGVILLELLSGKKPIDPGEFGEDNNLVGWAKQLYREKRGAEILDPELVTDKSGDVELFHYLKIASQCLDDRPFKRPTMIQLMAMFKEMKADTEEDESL
Protocol: as §1

[6] = biological target: T6, BRL3 (Arabidopsis thaliana, UniProt Q9LJF3); test: Yeast two-hybrid interaction with BRL3-KD; format: binding
T6 construct: expressed in transfected cells; host or cells: yeast strain MaV203
T6 sequence (Q9LJF3 858-1136 limits assumed): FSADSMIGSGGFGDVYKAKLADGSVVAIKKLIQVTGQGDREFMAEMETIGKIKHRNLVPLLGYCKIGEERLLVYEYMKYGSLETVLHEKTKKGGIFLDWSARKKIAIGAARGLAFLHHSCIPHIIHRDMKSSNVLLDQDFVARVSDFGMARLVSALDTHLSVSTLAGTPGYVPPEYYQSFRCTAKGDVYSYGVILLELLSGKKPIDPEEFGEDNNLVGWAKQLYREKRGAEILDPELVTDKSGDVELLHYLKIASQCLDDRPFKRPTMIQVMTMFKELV
Protocol: as §1

T3 sequence (Q9LFS4 312-593 limits assumed): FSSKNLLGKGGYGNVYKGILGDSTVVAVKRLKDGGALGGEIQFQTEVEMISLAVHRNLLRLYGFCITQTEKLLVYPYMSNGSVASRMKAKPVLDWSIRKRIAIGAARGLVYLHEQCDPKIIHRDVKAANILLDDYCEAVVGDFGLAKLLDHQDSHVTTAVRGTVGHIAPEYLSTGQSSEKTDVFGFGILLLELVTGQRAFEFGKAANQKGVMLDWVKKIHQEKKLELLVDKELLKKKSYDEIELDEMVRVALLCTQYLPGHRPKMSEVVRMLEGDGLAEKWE

B1: BKI1: BRI1-interacting protein of 337 amino acids, negative regulator of brassinosteroid signaling (SEQ ID NO:1) (protein, listed as Arabidopsis thaliana)
chain: METNLQQVKNSSQTFSEKQNPKQEASPSPISSTCSSPSHDFSFTISLQPLSSSSKHISPTLRSPSKTTSSYQQTDPFAVDLSPADEIFFHGHLLPLHLLSHLPVSPRTSTGSYNDGFTLPVKDILPDQPTNNNNNTENAITNISTEAKDDNTEDKAEGEIRVKTKPIKSFSLFGLSKWRKGFESNEREQEQQQQKIKKPMSLDLSHAVKKYIRMLFQKRGNGTQFWNRRQTSSYSFSSSLMGPNGNSKTMINGSYNKRDLIRGRRGELFSAPASMRTSPTNSGHLRVSTAGLSSSSGSTSSSSSDSTMEELQAAIQAAIAHCKNSSAVDRDDKVKDS
- Km [1]: ~1.55 µM
- interaction with kinase domain of BRI1 in yeast [2]: associated specifically
- interaction with kinase domain of NIK1 in yeast [3]: not
- interaction with kinase domain of CLV1 in yeast [4]: does not interact
- interaction with kinase domain of BRL1 in yeast [5]: does not interact
- interaction with kinase domain of BRL3 in yeast [6]: does not interact
